Assay results from the supplement of paper PMC12636428.

System: Saccharomyces cerevisiae
Experiment: transcriptional activation domain activity (GFP:mCherry ratio, weighted mean of sorted bins, harmonized to initial dataset scale) (arbitrary fluorescence ratio units); higher = stronger transcriptional activation
Conditions: beta-estradiol 1 µM; induction time 4 h
In short: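 In diploid yeast carrying a GFP reporter, barcoded protein tiles fused to an estradiol-inducible synthetic transcription factor were integrated at the URA3 locus. Cultures diluted 1:5 into SC with 1 uM beta-estradiol were kept at 30 °C for 4 hours, then sorted by GFP:mCherry ratio into 8 bins before barcode sequencing. Tiles with under 50 reads were excluded. The activation activity reported here is the read-weighted mean of bin median fluorescence, averaged across barcodes and linearly rescaled to the initial dataset.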

Question: “MFFLFPFLTFGYPAFNLKLCLLIQSNSYCHSFSSLSLYALLLLYLRLLLILLI” was tested. Which “transcriptional activation domain activity” value did it give?
Answer: 71100

Question: For “MFFLLVLAAVISGYKAVLKHFLVVISLFLHMIYLVPPLCLWKPILVASILSSP”, which “transcriptional activation domain activity” value is on record?
Answer: 44700

Question: Which “transcriptional activation domain activity” value does the source give for “MFFLPFGIFFFFACFFSLFTFADSWLAVFLPDRFLLSFVLFNFAFFFFFFTTL” here?
Answer: 31900

Question: How did the “transcriptional activation domain activity” value turn out when “MFFLSSFSALLAFSPPPSLLLLLLLLLTFPLSGFLALFLPRFSISLLTLSFFY” was run?
Answer: 50700

Question: Which “transcriptional activation domain activity” value does the source give for “MFFLSSIFLTLSMTLSPLFLYFNWLVVYGFSSLFFIFSTPTFLPPLCFFQWYC” here?
Answer: 45200

Question: For “MFFPLVLSKMLICVSFLPVTLLISYLSFFFLFFTGLGLGATAFFFFTFLLYFS”, which “transcriptional activation domain activity” value is on record?
Answer: 42100

Question: How did the “transcriptional activation domain activity” value turn out when “MFFRRFLMYFVELTGIMYCLIVFFMVSLFLLYRRNMIEEQFPNKTIILYGKRV” was run?
Answer: 58500

Question: With “MFGFIVVLLFSLPFFFTSSTTLSSFYFSFTFLVHFFLSYSLNVFLSFFVWFFF” as the sequence, how does the “transcriptional activation domain activity” value read?
Answer: 58100

Question: How did the “transcriptional activation domain activity” value turn out when “MFGFSLFFLFCFSVIVGFILFTLFFDYSPLSISLSCSVYCIMLCLSLFFLVFF” was run?
Answer: 34200

Question: With “MFGICTYSIPFLYFPPIPFVSYVSTLYFFVSHSISFHYLYIYCSIHLPFFLFI” as the sequence, how does the “transcriptional activation domain activity” value read?
Answer: 69000

Question: “MFGIGFFSRVLPWLWLWLWLYFFFFFFLYIFCMHYEQFSLSLTYNKLPFSLAL” was tested. Which “transcriptional activation domain activity” value did it give?
Answer: 65900

Question: For “MFGKRFIYCLSIIDYGISPHEGITGFILCVCVVYFLECGFCYCWHSRRTSMSW”, which “transcriptional activation domain activity” value is on record?
Answer: 64400

Question: “MFGRPYCFGFVVYLFVGCFAVLSVVCSFFFFPLLPLLVVVILLKVVFSFVRAD” was tested. Which “transcriptional activation domain activity” value did it give?
Answer: 29100

Question: For “MFGYDSSRSSCSFLLPRESSIRLMVYFLYLLRVFYLLFFVFHLFLLPSSLFFF”, which “transcriptional activation domain activity” value is on record?
Answer: 41200

Question: How did the “transcriptional activation domain activity” value turn out when “MFHSIYLVVPSFHPSHALIVSFLFSLLRITLHLLLHFLVLYLLLCILFFWHPE” was run?
Answer: 43100

Question: Which “transcriptional activation domain activity” value does the source give for “MFIFFKILILILLINIISITSFRLGAMLHYCIGHWDCMGNYLDCVFRLGFLFI” here?
Answer: 59000

Question: How did the “transcriptional activation domain activity” value turn out when “MFIFFLILLFYYYFYSTILFITYTLFSITQLSIFTLIPFLYYIIHYVTLLICS” was run?
Answer: 41100

Question: With “MFIFLFFIHLLSHLCFILILILLFSILLFYVPVICLSTFFILFYHHHLLCTHQ” as the sequence, how does the “transcriptional activation domain activity” value read?
Answer: 32200

Question: Which “transcriptional activation domain activity” value does the source give for “MFISICICSPYFQGCLAHTFYLFFYWGYLDCSLPPLVLQQRLLLWLLFDSFFI” here?
Answer: 46000

Question: For “MFIVCLFLFMILHYSFMFYIFGSNYLLLLLLVLLSWWFFLLYFPTFIFLFGVL”, which “transcriptional activation domain activity” value is on record?
Answer: 48700

Question: How did the “transcriptional activation domain activity” value turn out when “MFIYVFRPCNCIHLFIICQFSLFLITLLLYLFDLFFQLPFLLCINLTFCVAMC” was run?
Answer: 64900

Question: With “MFKCRNRYCYGSCVDLLCYLILGLDFLWIFCFLFFKRFFFRFLLSIPFSFFPS” as the sequence, how does the “transcriptional activation domain activity” value read?
Answer: 64600

Question: With “MFKGSFFFSLTGFLFSLLFLFFYPLPCWGRDHFFCWGLECLFSLFLSWVLFTV” as the sequence, how does the “transcriptional activation domain activity” value read?
Answer: 41100

Question: For “MFKGTLLLVFFHYGWALFLDYCLWYIMISLCFWYRVCLPVLLLGFHVCCHLWC”, which “transcriptional activation domain activity” value is on record?
Answer: 48500

Question: “MFKSFLGHSDQNTFFFFVLLLLLLCCHISLRAFFIFLSWIQLLYVLQWDECDK” was tested. Which “transcriptional activation domain activity” value did it give?
Answer: 47800

Question: With “MFKSVFCLFSVLSFLLFHACFIYHSFFSFLFLLMMKLLLWLCATFATKWLFFC” as the sequence, how does the “transcriptional activation domain activity” value read?
Answer: 69500

Question: Which “transcriptional activation domain activity” value does the source give for “MFLCCVCIEAQARILYLCCLYKLLTFYSFYYFYHSYFLLILNFFLLTILHALC” here?
Answer: 74000

Question: “MFLCFFHVFMLYLCHYVIVMLIYFLIYFMLFLLFMFLNTILQYEFLILHFCFI” was tested. Which “transcriptional activation domain activity” value did it give?
Answer: 47500

Question: Which “transcriptional activation domain activity” value does the source give for “MFLCLQFRYLFCCGLKHWLRWGDALCLRVLMQGRCCWCGKRKFMLSVSILSWR” here?
Answer: 53600

Question: “MFLEGVLQFVFFFFFFFPVYLSTFIFKFLAVGFLGSYLFLLVQLMQLIHSLIL” was tested. Which “transcriptional activation domain activity” value did it give?
Answer: 31900

Question: For “MFLFIYFVCVCVFSLSLLWDGVSGWVLFVLDWIGLIGGMCVWAYIIIFYEFLV”, which “transcriptional activation domain activity” value is on record?
Answer: 63200

Question: For “MFLFLFLFVFLFVFLFLFLFLFLFLFLFLFMFPFLFPFLFPFPFPFPFPVLVL”, which “transcriptional activation domain activity” value is on record?
Answer: 52700

Question: For “MFLFVFSLVCIFYYCCYLLLLLLSSWLYSQQFVLFWSLTVHISCCPSFFLNES”, which “transcriptional activation domain activity” value is on record?
Answer: 37400

Question: “MFLGFFFLFFYLFIMDHILDFWLLLRIIILIFAYSHCSFLRTLILFFRINFFF” was tested. Which “transcriptional activation domain activity” value did it give?
Answer: 69000

Question: With “MFLKSELHFNEPLQHILISFIFLSCLSNLALMIFSVVYKVYILLALIMLVYAN” as the sequence, how does the “transcriptional activation domain activity” value read?
Answer: 51900

Question: For “MFLLAFCIQAEYQLKLLYMFFYFFCSYVSSLIVFVSYFGVLVVLAGLNCFFTY”, which “transcriptional activation domain activity” value is on record?
Answer: 50300

Question: “MFLLFRSPCLLVLYIFWVGQSGVGLRGVGVHHFFFFFFSLLAALLLFCLCGAI” was tested. Which “transcriptional activation domain activity” value did it give?
Answer: 29400

Question: Which “transcriptional activation domain activity” value does the source give for “MFLLFSLCVDFKGVLGGWLLFFFLLAFDGFTRLLWGDVICFFFYLLLFATTHV” here?
Answer: 57600

Question: Which “transcriptional activation domain activity” value does the source give for “MFLLLKYDFSLTDLLRILLRLNMFPILLSFIMDRPYTSYTLPWLISFWYLVFF” here?
Answer: 66500

Question: For “MFLLVLYPILHLLFLPCKYQYFQIFIRLLSQLPLLFFFCNTFWFFSTSVFFLN”, which “transcriptional activation domain activity” value is on record?
Answer: 69600

Question: Which “transcriptional activation domain activity” value does the source give for “MFLPFSLSINHLPSLLLQPFILSLILLLFFLCLLHRLFPFLLQFFPFLFQFLS” here?
Answer: 50100

Question: “MFLPIVPFMLMLLRLLRLLRLLMLLMLLMLLPLFLFLFLLVMLCLFPLILLLL” was tested. Which “transcriptional activation domain activity” value did it give?
Answer: 56200

Question: With “MFLSTVMTRSICTFIFVEFELHGDAKSLCCGGLCRFCRLCSKVGVNYYSPCWW” as the sequence, how does the “transcriptional activation domain activity” value read?
Answer: 73000

Question: With “MFLTLLLGISLLPSLVIVYHLPHSLSFFFPPFLPFLLLPSILFLPGPFLRTAR” as the sequence, how does the “transcriptional activation domain activity” value read?
Answer: 64000

Question: “MFLVLGWMFAHFVTVSCWPLLLWHVFFWCCLTGASEAELFIPPFIFRLPILSS” was tested. Which “transcriptional activation domain activity” value did it give?
Answer: 74400

Question: For “MFLYISLIFTLYYSTFPPPPPHPTSYLAIFLFLKLPWLFFSFSTSFSFTFFFW”, which “transcriptional activation domain activity” value is on record?
Answer: 58400

Question: “MFLYSHPPLHPNVFLPPPSLFICTMLQLVFYRPSSVYLLLLLFWIYPPLFLLC” was tested. Which “transcriptional activation domain activity” value did it give?
Answer: 56400

Question: With “MFMDTLLFVFMHYGWTFFLNCCLWCFMISLCFWYVKFCLPIGCYILILCMWQG” as the sequence, how does the “transcriptional activation domain activity” value read?
Answer: 66200

Question: How did the “transcriptional activation domain activity” value turn out when “MFMGTLLLVFLHYDWAFFLDCCLWCFVISFCFCSVKFCLLVGCCILVLCNVAR” was run?
Answer: 70200

Question: “MFMGTLLLVFMDYGWAFFLDCYLWFFVTSLCFWYVKFCLLVGCCILVLCNVAW” was tested. Which “transcriptional activation domain activity” value did it give?
Answer: 31700

Question: “MFMGTLWLVIFHYGWAFFLDYCVWYFMISLCFWCEVCLPVLLPAFHVCCLLWC” was tested. Which “transcriptional activation domain activity” value did it give?
Answer: 52400

Question: “MFMKHGDVSLGYEVCFCILIIITFGLSFFFFFFFHFFLFFHFWLFVSLLFFSD” was tested. Which “transcriptional activation domain activity” value did it give?
Answer: 41900

Question: For “MFMSTLLLVFIHYGWAFFLGCCLWCFVISLCFWYVKLWLLVGCYILVLCDVAR”, which “transcriptional activation domain activity” value is on record?
Answer: 37400

Question: “MFMTELLWGPGVRRLFLVFLFFISFPSLIPFFLSCLSFCTLLISLLCSFGTCA” was tested. Which “transcriptional activation domain activity” value did it give?
Answer: 38500

Question: For “MFPFVFLSSFLSCFRLYSFNTCYIFSLILLCWYTFLLSYNGSLFCYPMIVYFL”, which “transcriptional activation domain activity” value is on record?
Answer: 70400

Question: With “MFPGLQYTLLCIHLSCDFIICCRAFLPYYLCFSHYFPVLMCPVSPVLILVWFI” as the sequence, how does the “transcriptional activation domain activity” value read?
Answer: 53600

Question: For “MFPYSWFRLLFRLLFLWPFLLFQLLFPWPTTLLILWPFRLLILWPIRLLILWP”, which “transcriptional activation domain activity” value is on record?
Answer: 73200

Question: With “MFQAKLLQHMCDLHTNSGDGELKTLLTEILRMLLVTYIMAHVLTIERDTVHSV” as the sequence, how does the “transcriptional activation domain activity” value read?
Answer: 47600

Question: For “MFQIHFLLFFFFFFSFFLLLLCFDVSILEVYFYKLLLFSFFFMMIVDLFFLFL”, which “transcriptional activation domain activity” value is on record?
Answer: 60300

Question: Which “transcriptional activation domain activity” value does the source give for “MFRLLEESFRYEPFVTFGLAVFACYFALIALNVVYYYYLFHFLWFCSYAFLAL” here?
Answer: 51600

Question: With “MFRPYSKFVLPSFFDIVLIYIFQEFGREALIWCQLCLQRVLPFLGLYHMGEML” as the sequence, how does the “transcriptional activation domain activity” value read?
Answer: 38500
